Source: patent publication CN117999282A (GAMMADELTA THERAPEUTICS LTD, dated 2024)

What was measured:
recombinant human PD-1 = target: T1, recombinant human PD-1 (human, UniProt Q15116 25-167); experiment: SPR, PD-1 fixed on carboxymethyl dextran chip, bispecific 100nM, then Vδ1 heterodimer 100nM
T1 construct: also called 重组PD-1; 人PD-1

[1] = target: human Vδ1 γδ T cell receptor on cells (skin-, blood- or tumour-derived Vδ1 γδ T cells) (human); experiment: cell-based or functional assay
recombinant human OX40 = target: T2, recombinant human OX40 (human, UniProt P43489 29-216); experiment: SPR, OX40 fixed on carboxymethyl dextran chip, bispecific 100nM, then Vδ1 heterodimer 100nM
T2 construct: also called 重组OX40; 人OX40
T2 sequence (looked up): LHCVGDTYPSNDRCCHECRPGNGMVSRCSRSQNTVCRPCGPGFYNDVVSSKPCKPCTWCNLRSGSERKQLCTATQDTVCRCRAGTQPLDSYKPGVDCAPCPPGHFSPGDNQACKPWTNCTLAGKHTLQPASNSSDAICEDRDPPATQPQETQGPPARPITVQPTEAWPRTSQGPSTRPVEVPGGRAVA

Chain of human Vδ1 γδ T cell receptor on cells (skin-, blood- or tumour-derived Vδ1 γδ T cells) (human) (A0A1B0GX56 22-115, stated change not applied): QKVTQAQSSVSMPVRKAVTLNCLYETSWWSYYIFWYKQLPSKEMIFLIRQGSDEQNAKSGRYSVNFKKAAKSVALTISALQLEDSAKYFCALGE
T1 sequence (Q15116 25-167 limits assumed): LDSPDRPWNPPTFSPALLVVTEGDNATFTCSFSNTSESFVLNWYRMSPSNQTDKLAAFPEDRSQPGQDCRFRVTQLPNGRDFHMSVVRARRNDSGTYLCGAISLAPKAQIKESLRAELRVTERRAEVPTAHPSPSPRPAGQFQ

B1: 抗Vδ1×PD-1双特异性抗体 (ADT1-4-2×帕博利珠单抗) (bispecific antibody, human IgG1, kappa)
chain 1: EIVLTQSPATLSLSPGERATLSCRASKGVSTSGYSYLHWYQQKPGQAPRLLIYLASYLESGVPARFSGSGSGTDFTLTISSLEPEDFAVYYCQHSRDLPLTFGGGTKVEIKRTVAAPSVFIFPPSDEQLKSGTASVVCLLNNFYPREAKVQWKVDNALQSGNSQESVTEQDSKDSTYSLSSTLTLSKADYEKHKVYACEVTHQGLSSPVTKSFNRGEC
chain 2: not shown
notes: also called 抗Vδ1×抗PD-1
binding result (recombinant human PD-1): binds

B2: ADT1-4 (parent antibody) (antibody, IgG1, V domains shown)
VH: QVQLQQSGPGLVKPSQTLSLTCAISGDSVSSKSAAWNWIRQSPSRGLEWLGRTYYRSKWSTDYAASVKSRITINPDTSKNQLSLQLNSVTPEDTAVYYCARTWSGYVDVWGQGTLVTVSS
VL: DIQMTQSPPALSASVGDRVTITCRASQDINDWLAWYQHKPGKAPKLLIYDASSLESGVPSRFSGSGSGTEFTLTISSLQPDDFATYYCQQSYSTPQVTFGQGTRLEIK
TCR下调 IC50 (soluble assay) [1]: 0.0383 µM

B3: 抗Vδ1×OX40双特异性抗体 (ADT1-4-2×珀伽利珠单抗) (bispecific antibody, human IgG1, kappa)
chain 1: DIQMTQSPPALSASVGDRVTITCRASQDINDWLAWYQHKPGKAPKLLIYDASSLESGVPLRFSGSGSGTEFTLTISSLQPDDFATYYCQQKYSAPQVTFGQGTRLEIKRTVAAPSVFIFPPSDEQLKSGTASVVCLLNNFYPREAKVQWKVDNALQSGNSQESVTEQDSKDSTYSLSSTLTLSKADYEKHKVYACEVTHQGLSSPVTKSFNRGEC
chain 2: not shown
notes: also called 抗Vδ1×抗OX40
binding result (recombinant human OX40): binds
